Laboratory results reported in patent publication US9012420B2, “Aptamer for chymase, and use thereof” (Ribomic Inc., priority 2009, dated 2015).

T1: chymase (recombinant, manufactured by SIGMA) (Homo sapiens, UniProt P23946)
T1 construct: purchased SIGMA; host or cells: yeast
T1 sequence (P23946 22-247): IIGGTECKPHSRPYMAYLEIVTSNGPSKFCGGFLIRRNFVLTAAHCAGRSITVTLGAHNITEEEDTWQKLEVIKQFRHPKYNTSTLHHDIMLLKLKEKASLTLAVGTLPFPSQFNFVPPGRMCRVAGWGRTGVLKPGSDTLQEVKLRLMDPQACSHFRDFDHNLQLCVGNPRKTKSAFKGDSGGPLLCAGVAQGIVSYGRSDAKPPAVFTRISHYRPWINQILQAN

T2: native chymase (purified from human skin mast cell) (Homo sapiens, UniProt P23946)
T2 construct: the native is chymase purified from human skin mast cell; purchased Calbiochem; host or cells: human skin mast cell
T2 sequence (P23946 22-247): T1 sequence (P23946 22-247)

T3: recombinant chymase (expressed by yeast) (Homo sapiens, UniProt P23946)
T3 construct: purchased SIGMA; host or cells: yeast
T3 sequence (P23946 22-247): T1 sequence (P23946 22-247)

T4: chymase (Homo sapiens, UniProt P23946)
T4 sequence (P23946 22-247): T1 sequence (P23946 22-247)

T5: chymase (recombinant) (UniProt P23946 P23946:22-247)
T5 sequence: T1 sequence (P23946 22-247)

B1: 39 (nucleic acid)
chain: GGGAGCAGGAGAGAGGUCAGAUGGUUACGGAUAGAGUUAAGGUAACGGUACGGCCUAUGCGUGCUAGUGUGA
modifications: aptamer; 2'-fluoro at CU, RNA at AG, backbone not given here
B2: 46 (nucleic acid)
chain: GGGAGCAGGAGAGAGGUCAGAUGGGACAGAUAGAGUUAAAGUCCGUUACGUGGCCUAUGCGUGCUAGUGUGA
modifications: aptamer; 2'-fluoro at CU, RNA at AG, backbone not given here
B3: 40 (nucleic acid)
chain: GGGAGCAGGAGAGAGGUCAGAUGAACGGAUAGAGCUAAGAGUUCGUCAGAGGGGCCUAUGCGUGCUAGUGUGA
modifications: 2'-fluoro at CU, RNA at AG, backbone not given here
B4: 48 (nucleic acid)
chain: GGGAGCAGGAGAGAGGUCAGAUGUGAAGAUAGAGAUAAAUCACAUACAGUCGGCCUAUGCGUGCUAGUGUGA
modifications: aptamer; 2'-fluoro at CU, RNA at AG, backbone not given here
B5: 42 (nucleic acid)
chain: GGGAGCAGGAGAGAGGUCAGAUGCGUGAUCGUGCAAGGCGGAUAGAGUUAAGGCCUAUGCGUGCUAGUGUGA
modifications: aptamer; 2'-fluoro at CU, RNA at AG, backbone not given here
B6: 38 (nucleic acid)
chain: GGGAGCAGGAGAGAGGUCAGAUGGAUAGAGUUAAGAUCUGGCUGGCGCAUUAGCCUAUGCGUGCUAGUGUGA
modifications: aptamer; 2'-fluoro at CU, RNA at AG, backbone not given here
B7: 44 (nucleic acid)
chain: GGGAGCAGGAGAGAGGUCAGAUGUUAGACCAAAGCAUAGGAGAUAGAGUUAAACCUAUGCGUGCUAGUGUGA
modifications: aptamer; 2'-fluoro at CU, RNA at AG, backbone not given here
B8: 43 (nucleic acid)
chain: GGGAGCAGGAGAGAGGUCAGAUGAUGCCAAGAUAGAUUUAAAUGGCGUUUGGGCCUAUGCGUGCUAGUGUGA
modifications: aptamer; 2'-fluoro at CU, RNA at AG, backbone not given here
B9: 45 (nucleic acid)
chain: GGGAGCAGGAGAGAGGUCAGAUGGACCACCGAUGGGCAAGAUAGAGUUAAAUGCCUAUGCGUGCUAGUGUGA
modifications: aptamer; 2'-fluoro at CU, RNA at AG, backbone not given here
B10: 47 (nucleic acid)
chain: GGGAGCAGGAGAGAGGUCAGAUGGUGAUAGAUAGAGUUAAAAUCGCUGAAUGGCCUAUGCGUGCUAGUGUGA
modifications: aptamer; 2'-fluoro at CU, RNA at AG, backbone not given here

How the values were obtained:
[1] = biological target: T1, chymase (recombinant, manufactured by SIGMA); assay: Chymase inhibitory activity using synthetic substrate Suc-Ala-Ala-Pro-Phe-MCA; type: biochemical
Outline: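 Human recombinant chymase (16.7 nM or 1.67 nM final) preincubated 5 min at 37° C., then added to nucleic acid (0.0027–2 μM serial dilutions) and 100 μM substrate in solution C. AMC fluorescence (ex 380/em 460 nm) followed 5 or 30 min at 37° C.; slope gives initial velocity, inhibition versus no-inhibitor control yields IC50.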

[2] = biological target: T2, native chymase (purified from human skin mast cell); assay: Chymase inhibitory activity using angiotensin I as substrate, native chymase; type: biochemical; conditions: final 50 μM, chymase 0.2-0.5 nM, 37° C. 90 min, one measurement
Protocol: (§1) A second method of evaluation employs a native substrate. A useful native substrate for chymase is angiotensin I. Here, His-Leu, a peptide fragment released upon degradation of angiotensin I, is fluorescently derivatized, and the fluorescence intensity therefrom is quantified.
(§2) In the assay, an enzyme reaction is carried out in 50 μL of solution C. First, 0.3-0.75 ng of chymase (recombinant, manufactured by SIGMA; or native, manufactured by Calbiochem) is diluted in solution C to obtain 5 μL chymase solution. Each nucleic acid is prepared in solution C to obtain 25 μL solutions. 5 μL of each chymase dilution and 25 μL of each nucleic acid solution are mixed, and then the mixture is incubated at 37° C. for 5 minutes. […] The angiotensin I solution is added to the mixture of chymase and nucleic acid, and the enzyme reaction is initiated. After the reaction was allowed to proceed at 37° C. for 90 minutes, 25 μL of ice-cooled 30% trichloroacetic acid solution is added to terminate the reaction. The entire mixture is centrifuged at 4° C., 14000 rpm for 10 minutes, and 30 μL of the resulting supernatant is used for the subsequent reaction for fluorescent derivatization.
(§3) After 30 μL of the supernatant is added to a 96-well plate (Black, manufactured by Costar), 15 μL of 2% o-phthalaldehyde (manufactured by SIGMA) solution in methanol and 170 μL of 0.3M NaOH solution are mixed in each well, and the plate is allowed to stand at room temperature for 10 minutes. Subsequently, 25 μL of 3M HCl solution is added to terminate the reaction. The plate is set to the microplate reader SpectraMax190 (manufactured by Molecular Devices Corporation), and the fluorescence intensity is determined at an excitation wavelength of 355 nm and a fluorescence wavelength of 460 nm.
(§4) For control, samples are treated and analyzed in the same manner in two cases: use of SEQ ID NO: 58 (negative control) and use of chymostatin, a known chymotrypsin-like serine protease inhibitor (positive control). In both cases, fluorescence intensity obtained at 0 minute reaction time serves as a blank determination. Taking the fluorescence intensity detected with the addition of an equal volume of solution C, in place of each nucleic acid, in the chymase enzyme reaction as 100%, the inhibitory rate for each test substance is calculated, and the inhibitor concentration required to cause a 50% inhibition of the enzyme activity (IC50) is determined.
(§5) For further assessment of the inhibitory activity of the nucleic acid of the present invention, the enzyme activity of chymase was measured using angiotensin I, which is a native substrate for chymase, according to the following method. Angiotensin I is converted by chymase to angiotensin II, during which a peptide fragment His-Leu is released. Since the peptide His-Leu is fluorescently derivatized by o-phthalaldehyde, its fluorescence intensity can be quantitatively measured.
(§6) The total volume of solution for an enzyme reaction in the assay was set to 50 μL, and the reaction was performed in solution C buffer. First, 0.3-0.75 ng of chymase (recombinant, (manufactured by SIGMA) or native (manufactured by Calbiochem)) was diluted with solution C to give 5 μL thereof. Here, the recombinant is chymase expressed by yeast, and the native is chymase purified from human skin mast cell. The nucleic acid was serially diluted with solution C at a concentration of 0.0027-2 μM to give 25 μL thereof. The chymase solution (5 μL) and the nucleic acid solution (25 μL) were mixed, and the mixture was incubated at 37° C. for 5 min. On the other hand, […] angiotensin I (manufactured by PEPTIDE INSTITUTE, INC.) was prepared in solution C to give […] thereof, which was incubated at 37° C. for 5 min. The angiotensin I solution was added to a mixture of chymase and nucleic acid to start an enzyme reaction. The final chymase concentration of the reaction solution was 0.2-0.5 nM, and the final substrate concentration was 50 μM. […]

[3] = biological target: T3, recombinant chymase (expressed by yeast); assay: Chymase inhibitory activity using angiotensin I as substrate, recombinant chymase; type: biochemical; conditions: final 50 μM, chymase 0.2-0.5 nM, 37° C. 90 min, one measurement
Protocol: as §1, §2, §3, §4, §5, §6

chymase = biological target: T4, chymase; assay: Surface plasmon resonance (Biacore T100), aptamer immobilized on SA chip, chymase injected as analyte; type: binding; design: key: ++: a sequence that binds to chymase significantly more strongly than the negative control 30N; conditions: Table 2; same manner as Example 1, running buffer solution C; compared with 30N
Protocol: Binding strength is measured using Biacore T100 (manufactured by GE Healthcare). In a method of measurement, the aptamer is first immobilized onto a sensor chip, the amount immobilized being about 1000 RU. 20 μL of a chymase solution for analyte, prepared at 0.2 μM, is injected, and the binding of chymase to the aptamer is detected. An RNA comprising a random nucleotide sequence of 30 or 40 nucleotides is used as a negative control.
The binding activities against chymase of the nucleic acids shown by SEQ ID NO: 4-20 and 22-34 were determined by the surface plasmon resonance method using Biacore T100 (manufactured by GE Healthcare). The sensor chip used was the SA chip, which had streptavidin immobilized thereon. Bound thereto was about 1500 RU of a 16-nucleotide Poly dT with biotin bound to the 5′ end thereof. […] 20 μL of chymase for analyte, prepared at 0.2 μM, was injected. Solution A was used as a running buffer.
The binding activities against chymase of the nucleic acids shown by SEQ ID NO: 38-48 were evaluated by the surface plasmon resonance method. In the evaluations for SEQ ID NO: 38-48, measurements were taken in the same manner as Example 1. Solution C was used as a running buffer.

chymase (recombinant) = biological target: T5, chymase (recombinant); assay: inhibition; SPR ++; conditions: tags: SIGMA, expressed in yeast
Protocol: Here, Suc is a protecting succinyl group, and MCA is a 4-methylcoumaryl-7-amide group; upon cleavage of the C-terminal side of phenylalanine, AMC (7-amino-4-methyl-coumarine) is released. By detecting the fluorescence of this AMC, the enzyme activity of chymase can be determined. The assay was performed using a 96-well plate (F16 Black Maxisorp Fluoronunc, manufactured by Nunc), with a reaction mixture volume of 100 μL, in solution C as a buffer solution. First, each nucleic acid was serially diluted to 0.0027-2 μM concentrations in solution C to obtain 50 μL solutions. After 10 μL of the 1 mM substrate prepared in solution C was added thereto, the plate was set to the microplate reader SpectraMax190 (manufactured by Molecular Devices Corporation), and incubated at 37° C. for 5 minutes. Separately, 0.05 μg (or 0.005 μg) of chymase (recombinant, manufactured by SIGMA) was diluted in solution C to obtain a 40 μL chymase solution, and incubated at 37° C. for 5 minutes. The chymase solution was added to the mixture of the nucleic acid and substrate to initiate an enzyme reaction. The final chymase concentration in the reaction mixture was 16.7 nM (or 1.67 nM), the final substrate concentration being 100 μM. The plate containing the reaction mixture was set to the microplate reader SpectraMax190 (manufactured by Molecular Devices Corporation), and examined for time-dependent changes in the fluorescence intensity at 37° C. for 5 minutes (or 30 minutes) (excitation wavelength 380 nm, detection wavelength 460 nm). A linear approximation of the increase in the fluorescence of the AMC released from the substrate by chymase activity was generated, and its slope was taken as the initial velocity […]. For control, samples were treated and analyzed in the same manner in two cases: use of a 30N or 40N (a nucleotide of 30 or 40 consecutive bases represented by N; N is A, G, C or T) nucleic acid pool (negative control), and use of chymostatin, a known chymotrypsin-like serine protease inhibitor (positive control). Taking the initial reaction velocity without the nucleic acid and inhibitor (V_0) as a 100% enzyme activity, the inhibitory rate of each test substance was calculated using the following equation: […]
The inhibitory activity on chymase was measured in the same manner as in Example 3.

[4] = Table 3, substrate 100 μM, solution C, 37° C., mean value for 2 to 3 measurements

Molecule | Binding activity as determined using Biacore (chymase) | IC50 [1, 4] [nM] | other results
69 (AAAGGGUUAGAUAGAGUUAAAAACCC; listed as RNA, chemistry not given here) [compound 69] | – | – | IC50 ([1]; Table 7, same manner as Example 3, mean value of two measurements): 91 ± 19 nM; IC50 [2]: > 1000 nM; IC50 [3]: 628 nM
B1 | ++ | – | –
B2 | ++ | 38 ± 4 | –
B3 | ++ | 140 ± 85 | –
B4 | ++ | 95 ± 18 | –
B5 | ++ | 124 ± 26 | –
B6 | ++ | 50 ± 12 | –
GGGUUAGAUAGAGUUAAAAACCC (ssRNA, 2'-F pyrimidines except U15 2'-OH) [56(16)] | – | – | IC50 (chymase (recombinant)): 58 nM
B7 | ++ | 49 ± 13 | –
GGGUUAGAUAGAGUUAAAAACCC (ssRNA, 2'-F pyrimidines except U9 2'-OH) [56(15)] | – | – | IC50 (chymase (recombinant)): 61 nM
B8 | ++ | 81 ± 50 | –
B9 | ++ | 74 ± 11 | –
B10 | ++ | 58 ± 12 | –
